Holding throughout (assay): cell-based or functional assay
Experiment [1] addresses Tau from human Alzheimer's disease brain (isolated Tau PHF fibrils from Alzheimer's disease patients) (human) (UniProt P10636).
In experiment [2] the target is Tau from human frontotemporal dementia brain (human) (UniProt P10636).
The target of experiment [3] is Tau from human progressive supranuclear palsy brain (human) (UniProt P10636).
The target in experiment [4] is human Tau P301S from brain of P301S Tau transgenic mice (human) (UniProt P10636).
Experiment [5] concerns the target human Tau P301L from brain of P301L Tau transgenic mice (human) (UniProt P10636).

Data on three substances can be found in patent US20210115121A1.

Sequence of HJ8.5 of WO 2014/008404 (antibody) (VH): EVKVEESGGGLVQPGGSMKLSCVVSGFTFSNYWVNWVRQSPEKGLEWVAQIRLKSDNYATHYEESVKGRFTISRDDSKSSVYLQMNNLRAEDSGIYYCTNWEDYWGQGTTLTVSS
Sequence of HJ8.5 of WO 2014/008404 (antibody) (VL): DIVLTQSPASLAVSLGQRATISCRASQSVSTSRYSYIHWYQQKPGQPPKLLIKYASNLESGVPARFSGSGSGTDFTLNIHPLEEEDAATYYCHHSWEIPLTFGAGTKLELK
Sequence of Tau from human Alzheimer's disease brain (isolated Tau PHF fibrils from Alzheimer's disease patients) (human) (P10636 other isoform, or with tags, fused parts or gaps limits assumed): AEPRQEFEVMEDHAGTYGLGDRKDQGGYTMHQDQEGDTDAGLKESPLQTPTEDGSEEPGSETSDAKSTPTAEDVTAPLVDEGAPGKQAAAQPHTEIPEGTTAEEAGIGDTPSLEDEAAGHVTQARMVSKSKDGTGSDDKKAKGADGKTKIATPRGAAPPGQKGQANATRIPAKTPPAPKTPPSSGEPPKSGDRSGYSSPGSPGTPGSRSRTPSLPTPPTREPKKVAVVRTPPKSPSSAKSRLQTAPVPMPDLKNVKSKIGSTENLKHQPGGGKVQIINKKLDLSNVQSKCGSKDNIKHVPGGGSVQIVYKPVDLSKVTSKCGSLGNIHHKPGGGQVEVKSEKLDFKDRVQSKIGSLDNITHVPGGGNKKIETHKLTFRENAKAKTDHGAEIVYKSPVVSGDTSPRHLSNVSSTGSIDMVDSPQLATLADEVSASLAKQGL
Sequence of Tau from human frontotemporal dementia brain (human) (P10636 other isoform, or with tags, fused parts or gaps limits assumed): as above
Sequence of Tau from human progressive supranuclear palsy brain (human) (P10636 other isoform, or with tags, fused parts or gaps limits assumed): as above
Sequence of IPN002 of WO2014/028777A2 (antibody) (VH): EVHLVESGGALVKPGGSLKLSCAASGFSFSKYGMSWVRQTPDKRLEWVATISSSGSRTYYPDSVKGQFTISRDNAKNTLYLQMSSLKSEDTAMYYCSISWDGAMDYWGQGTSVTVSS
Sequence of IPN002 of WO2014/028777A2 (antibody) (VL): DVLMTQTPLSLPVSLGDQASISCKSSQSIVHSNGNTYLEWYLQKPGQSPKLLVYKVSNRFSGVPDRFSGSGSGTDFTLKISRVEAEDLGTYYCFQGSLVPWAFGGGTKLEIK
Sequence of human Tau P301L from brain of P301L Tau transgenic mice (human) (P10636 other isoform, or with tags, fused parts or gaps P301L P301L P301L P301L limits assumed): as the sequence (P10636 other isoform, or with tags, fused parts or gaps limits assumed) above, with P300L counted along it
Sequence of human Tau P301S from brain of P301S Tau transgenic mice (human) (P10636 other isoform, or with tags, fused parts or gaps P301S P301S P301S P301S): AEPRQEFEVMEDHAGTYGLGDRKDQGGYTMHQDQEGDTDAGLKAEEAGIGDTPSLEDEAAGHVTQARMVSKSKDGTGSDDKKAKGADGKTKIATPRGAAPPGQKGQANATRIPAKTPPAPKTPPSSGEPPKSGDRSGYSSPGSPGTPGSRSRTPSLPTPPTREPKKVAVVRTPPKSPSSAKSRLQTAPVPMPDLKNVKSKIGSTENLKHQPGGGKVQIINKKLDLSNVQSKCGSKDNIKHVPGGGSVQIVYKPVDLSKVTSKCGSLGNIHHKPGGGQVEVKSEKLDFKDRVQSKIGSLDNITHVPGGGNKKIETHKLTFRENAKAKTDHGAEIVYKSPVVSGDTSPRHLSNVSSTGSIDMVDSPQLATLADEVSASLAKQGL

Consider HJ8.5 of WO 2014/008404 (antibody), for which the Imax (maximal efficacy at 300 nM, cellular Tau aggregation assay) in experiment [1] came out at 46%; in experiment [2], 67%; in experiment [3] it was 79%; in experiment [4], 43%. The IC50 (cellular Tau aggregation assay) in experiment [3] turned out to be 73 nM.

Consider IPN002 of WO2014/028777A2 (antibody), for which the Imax (maximal efficacy at 300 nM, cellular Tau aggregation assay) in experiment [1] was found to be 19%; in experiment [2] it was 50%; in experiment [3], 64%; in experiment [5], 73%; in experiment [4], 22%. Further, the IC50 (cellular Tau aggregation assay) in experiment [3] stood at 207 nM; in experiment [5] it was 122 nM.

On to PT3 of WO2013/096380A2 (antibody), for which the IC50 (cellular Tau aggregation assay) in experiment [1] worked out at 32 nM; in experiment [2], 1 nM; in experiment [3], 47 nM; in experiment [5], 26 nM; in experiment [4], 350 nM. Also, the Imax (maximal efficacy at 300 nM, cellular Tau aggregation assay) in experiment [1] turned out to be 69%; in experiment [2], 80%; in experiment [3], 55%; in experiment [5] it was 69%; in experiment [4], 56%.
